Target: the molecule itself
Assay: crystal structure; Ca2+-loaded mS100A7ΔC at 12 to 14 mg/ml in 20 mM Tris pH 8.0, 100 mM NaCl, 1% glycerol, 1 mM TCEP, 2 mM CaCl2; crystals in 0.1 M potassium thiocyanate, 20% PEG MME 2K, 0.01 M strontium chloride, 20 °C; space group P212121, 1.69 Å

B1: mouse S100A7 tailless (mS100A7ΔC), deletion mutant mS100A7(1-100) (domain or fragment, UniProt Q6S5I3 1-100, looked up)
chain: MPDTPVEDSLFQIIHCFHHYAAREGDKETLSLEELKALLLDSVPRFMDTLGRRQPYYITELFRAADKNKDNQICFDEFLYILGKLVKDYHLQFHRQLCAH
notes: mouse S100A7 (S100A15a), UniProt Q6S5I3, residues 1-100: truncated at His100, lacks the last eight residues of the C-terminal tail; Gene synthesised and subcloned in pET11a (NdeI/BamHI); no tag is mentioned; Crystallised Ca2+-loaded; residues R95-H100 are poorly defined in the structure; also called murine S100A7ΔC; S100A15a; source: E. coli BL21 RIL, purified (supernatant heated to 85 °C, DEAE …)
B1: binds.

Reference: paper PMC10598741, “Comparative analysis of the physical properties of murine and human S100A7: Insight into why zinc piracy is mediated by human but not murine S100A7” (The Journal of Biological Chemistry, 2023)
